Test results published in patent publication US9395368B2, “Methods, agents and peptides for inducing an immune response to matrix metalloproteinase-2 expressing tumors” (New York University, priority 2010, dated 2016).

Tests used:
Recombinant IL-12p70 = assay: Incubation of recombinant IL-12p70 with MMP-2, IL-12p70 content by CBA; type: biochemical, human; conditions: rhIL-12 incubated for 24 h in the presence or absence of MMP-2
IFNβ production by DCs = assay: IFNβ levels produced by poly(I:C)-matured DCs (ELISA); type: cell-based, human; conditions: poly(I:C)-matured DCs pre-exposed, 16 h
Description: Immature DCs were incubated with MMP-2 (0.5 μg/mL or 5 μg/mL) and poly(I:C)-matured 1 h later. IL-12 levels were measured 16 h later. (A) Results are represented as a percentage of IL-12p70 levels, measured by CBA, produced when DCs were incubated with poly(I:C) only (n=11). (B) For intracellular staining of IL-12p35 and IL-12p40 chains, Brefeldin A was added 4 h after poly(I:C) activation and cells were stained after an additional 12 h incubation. Numbers in the upper right quadrants are the percentages of each population for a representative donor (n=3). (C,D) Immature DCs were incubated with MMP-2 for 1 h (5 μg/mL) before poly(I:C) maturation. Intracellular staining of phosphorylated (Y701) STAT1 (P-STAT1) was performed 3 h later. […] IFNβ levels were measured by ELISA 16 h later. […] IFNAR1 protein expression was detected the next day by Western blot analysis using a rabbit monoclonal antibody. […]
Enzyme-linked immunosorbent assay Activation of T cell clones (10,000 cells/100 μL/well), polyclonal T cell populations (100,000 cells/100 μL/well), DCs (50,000 cells/100 μL/well) and basophils (10,000 cells/100 μL/well) was determined by ELISA. IFNγ (BioSource), TNFα (BioSource), IL-4 (BioSource), TSLP (Quantikine; R&D Systems), IFNβ (VeriKine; PBL interferon source) and MCP-3 (DuoSet; R&D Systems) contents in supernatants were measured according to the manufacturer's instructions.

[1] = system: IL-12p35 and IL-12p40 in DCs; assay: Intracellular staining of IL-12p35 and IL-12p40 chains in DCs; type: cell-based, human
Description: Immature DCs were incubated with MMP-2 (0.5 μg/mL or 5 μg/mL) and poly(I:C)-matured 1 h later. IL-12 levels were measured 16 h later. (A) Results are represented as a percentage of IL-12p70 levels, measured by CBA, produced when DCs were incubated with poly(I:C) only (n=11). (B) For intracellular staining of IL-12p35 and IL-12p40 chains, Brefeldin A was added 4 h after poly(I:C) activation and cells were stained after an additional 12 h incubation. Numbers in the upper right quadrants are the percentages of each population for a representative donor (n=3). (C,D) Immature DCs were incubated with MMP-2 for 1 h (5 μg/mL) before poly(I:C) maturation. Intracellular staining of phosphorylated (Y701) STAT1 (P-STAT1) was performed 3 h later. A representative donor (C) and results for all 3 donors (D) are shown. […] (E) Immature DCs were incubated with MMP-2 and poly(I:C)-matured 1 h later. IFNβ levels were measured by ELISA 16 h later. Results are represented as a percentage of IFNβ levels produced when DCs were incubated with poly(I:C) only (n=9). (F,G) 10^6DCs/lane were treated with 0.1 μg MMP-2 or controls. Poly(I:C) was added 1 h later. IFNAR1 protein expression was detected the next day by Western blot analysis using a rabbit monoclonal antibody. A representative donor (F) and results for all 7 donors (G) are shown. (H) The rhIFNAR1 (5 μg; ≈110 kD) was incubated overnight with 0.3 μg MMP-2 before performing Western blot analysis for IFNAR1. The second band (around 90 kD) and the third band (25 kD) very likely correspond to either a degraded form of the protein still recognized by the antibody or a contaminant present in the commercial protein preparation and non-specifically recognized by the antibody. MMP-2 enzymatic activity was controlled (FIG. 13C-D). […]
Intracellular staining T-bet and GATA-3 expression was measured on resting T cells. […] Cytokine production by T cells was also assessed by intracellular staining T cells were stimulated with 2 μM overlapping peptides. […]

B1: active MMP-2: Purified human MMP-2 (mixture of the proenzyme (50%) and the active form (50%)) purchased from Biomol (protein, listed as Homo sapiens)
chain: MEALMARGALTGPLRALCLLGCLLSHAAAAPSPIIKFPGDVAPKTDKELAVQYLNTFYGCPKESCNLFVLKDTLKKMQKFFGLPQTGDLDQNTIETMRKPRCGNPDVANYNFFPRKPKWDKNQITYRIIGYTPDLDPETVDDAFARAFQVWSDVTPLRFSRIHDGEADIMINFGRWEHGDGYPFDGKDGLLAHAFAPGTGVGGDSHFDDDELWTLGEGQVVRVKYGNADGEYCKFPFLFNGKEYNSCTDTGRSDGFLWCSTTYNFEKDGKYGFCPHEALFTMGGNAEGQPCKFPFRFQGTSYDSCTTEGRTDGYRWCGTTEDYDRDKKYGFCPETAMSTVGGNSEGAPCVFPFTFLGNKYESCTSAGRSDGKMWCATTANYDDDRKWGFCPDQGYSLFLVAAHEFGHAMGLEHSQDPGALMAPIYTYTKNFRLSQDDIKGIQELYGASPDIDLGTGPTPTLGPVTPEICKQDIVFDGIAQIRGEIFFFKDRFIWRTVTPRDKPMGPLLVATFWPELPEKIDAVYEAPQEEKAVFFAGNEYWIYSASTLERGYPKPLTSLGLPPDVQRVDAAFNWSKNKKTYIFAGDKFWRYNEVKKKMDPGFPKLIADAWNAIPDNLDAVVDLQGGGHSYFFKGAYYLKLENQSLKSVKFGSIKSDWLGC
IL-12p70 levels after incubation of rhIL-12 with MMP-2 (Recombinant IL-12p70): remained the same
IFNβ levels (IFNβ production by DCs): decreased levels
IL-12p40 production [1]: not affected overall
IL-12p35 production, mean inhibition ([1]; pre-exposure of DCs): 65%
DCs expressing the IL-12p35 subunit ([1]; pre-incubated before poly(I:C) activation, poly(I:C) only 4.33%±0.94): 1.5%±0.22
